These results are taken from patent US5981483A, “Compositions comprising modulators of cytokines of the TGF-β superfamily” (Mount Sinai Hospital Corporation, priority 1997, dated 1999).

One assay concerns the target T1, BMP-2 (Homo sapiens, UniProt P12643).
T1 construct: Genetics Institute, Cambridge, Mass; (gift)
T1 sequence (P12643 283-396): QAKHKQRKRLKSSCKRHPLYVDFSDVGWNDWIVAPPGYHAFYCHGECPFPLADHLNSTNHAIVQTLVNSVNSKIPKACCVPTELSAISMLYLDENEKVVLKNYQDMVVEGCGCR
Put plainly: BIAcore surface plasmon resonance, binding to immobilized BMP-2. The following applies: for kass: ligand BMP-2. Here is the method:
(§1) In this system, a purified protein serving as the ligand is covalently coupled to a carboxymethylated dextran surface, and binding molecules (i.e. the analyte) are passed in a fluid phase across the surface. Binding of the analyte to ligand causes a change in reflected light which is directly proportional to mass bound, and is measured in arbitrary response units (R.U.). Analyte-ligand binding is observed as both increasing response with time during the injection of analyte, and the difference in the position of the baseline before and after injection.
(§2) Schuster, R. V. Swanson, L. A. Alex, R. B. Bourret, M. I. Simon, Nature 365, 343 (1993). 1000 R.U. equals approximately 1 ng/mm^2. The running buffer was 20 mM Hepes (pH 7.2), 150 mM NaCl and the flow rate for all sensorgrams was 3 μl/min.
(§3) Regeneration of the surface to remove bound analyte was done by injection of 10 μl of 20 mM NaOH. To cyclize TRH1 peptides, the material was reduced with 5 mM DTT then brought to a final concentration of 60 μM in 25 mM ammonium acetate (pH 8.5). After stirring in the dark for 30 min at 20° C. with 30 mM potassium ferricyanide, the peptide was mixed with AG3-X4A resin (BioRad), filtered, lyophilization and desalted on a 50×2.5 cm column of Biogel P2 (Pharmacia) developed in water, and further purified by reverse phase HPLC.
(§4) Injection volumes were 36 μl for FIG. 2, 4 and 5 and 45 μl for FIG. 3. […] Protein concentrations in each experiment were (FIGS. 2 and 3), 2, 5, 10, 20, 30, 40 μM; (FIG. 4), 0.21, 0.31, 0.41, 0.62, 0.82, 1.24 μM; (FIG. 5), 0.22, 0.29, 0.44, 0.59, 0.88 μM. R.U. for the immobilized cytokine in each experiment was 2850 R.U. for FIGS. 2 and 3; 7450 R.U. for FIG. 4, and 5300 R.U., for FIG. 5 respectively.
(§5) Data was analyzed using the BIA-evaluation software (Pharmacia Biosensor). The association rate constant, kass, was calculated by first plotting the change in response with time versus response (i.e. dR/dT vs R). When the slope of the line from this graph is plotted versus analyte concentration (i.e d(dR/dT)/dR vs C), kass is obtained from the slope of the line. The dissociation rate constant, kdiss, is obtained during the decrease in response with time after analyte injection is discontinued. Specifically, kdiss was obtained from the slope of the line in a plot of ln(Rt1 /Rtn) vs time. The affinity constants were calculated from KD =kdiss /kass. Variance for kass is standard error of the linear regression plot, and for kdiss values are the mean ± range of 3 or more independent injections.
(In general: Surface plasmon resonance follows binding to a sensor surface in real time, without labels.)

In assay [1] the target is T2, TGF-β1 (Homo sapiens, UniProt P01137).
T2 construct: The mature processed cytokines produced from the members of the gene family show almost 100% amino acid identity between species; purchased Collaborative Research (Bedford, Mass.)
T2 sequence (P01137 279-390 limits assumed): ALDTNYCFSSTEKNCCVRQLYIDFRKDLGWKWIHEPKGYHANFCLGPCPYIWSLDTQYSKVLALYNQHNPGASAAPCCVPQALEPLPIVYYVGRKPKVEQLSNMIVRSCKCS
Description: 3H-Thymidine incorporation in Mv1Lu cells: neutralization of the antiproliferative activity of TGF-β1. It is filed as cell-based. Here is the method: Mv1Lu cells were seeded at 20,000 cells/well in a 96 well plate containing 0.2% FCS in α-MEM and incubated with the indicated concentrations of proteins for 18 hr. The cells were then pulsed with 8 μCi/ml methyl-^3 H-thymidine (NEN, Boston, Mass.) for 6 hr. Cells were trypsinized, harvested onto filtermats and counted in a β-Counter. Percent neutralization is defined as incorporation in the presence of 12 pM TGF-β1 alone set at 0%, and incorporation without additions as 100%. The difference in ^3 H-thymidine incorporation between 0% and 100% was 7.5 fold. Each point in FIG. 1 and FIG. 12 represents the mean of duplicate determinations, and the results are representative of three experiments. […] Before use, bovine thyroglobulin was spun twice in a centricon (M.W. cutoff of 10,000 Da) micro-concentrator (Amicon, Beverly, Mass.) to remove any excess Iodine and T3/T4 thyroid hormones.

In another assay the target is T3, BMP-4 (Homo sapiens, UniProt P12644).
T3 sequence (P12644 293-408): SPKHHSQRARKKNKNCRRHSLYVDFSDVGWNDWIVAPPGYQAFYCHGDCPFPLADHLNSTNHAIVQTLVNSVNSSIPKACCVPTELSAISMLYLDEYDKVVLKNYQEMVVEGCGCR
Put plainly: BIAcore surface plasmon resonance, binding to immobilized BMP-4. The following applies: Table 1; ligand BMP-4. Here is the method: as §1, §2
Regeneration of the surface to remove bound analyte was done by injection of 10 μl of 20 mM NaOH. To cyclize TRH1 peptides, the material was reduced with 5 mM DTT then brought to a final concentration of 60 μM in 25 mM ammonium acetate (pH 8.5). […]
Data was analyzed using the BIA-evaluation software (Pharmacia Biosensor). The association rate constant, kass, was calculated by first plotting the change in response with time versus response (i.e. dR/dT vs R). […] The affinity constants were calculated from KD =kdiss /kass. […]

In another assay the target is T4, TGF-β2 (Homo sapiens, UniProt P61812).
T4 construct: The mature processed cytokines produced from the members of the gene family show almost 100% amino acid identity between species
T4 sequence (P61812 303-414 limits assumed): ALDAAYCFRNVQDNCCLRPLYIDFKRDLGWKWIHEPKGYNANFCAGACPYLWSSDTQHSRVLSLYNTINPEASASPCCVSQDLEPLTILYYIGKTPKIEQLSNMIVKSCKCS
Description: BIAcore surface plasmon resonance, binding to immobilized TGF-β2. To be noted: Table 1; ligand TGF-β2. Here is the method: as §1, §2, §3
as §5, with “Variance for kass is standard error of the linear regression plot, and for kdiss values are the mean ± range of 3 or more independent injections.” left out

Assay [2] addresses T2, TGF-β1. Put plainly: BIAcore surface plasmon resonance, binding to immobilized TGF-β1. The following applies: for kass: ligand TGF-β1. Here is the method:
as §1, §2, §3, §4, §5

For a further assay, the target named is T5, TGF-β1 binding to TβRII (Homo sapiens, UniProt P01137).
T5 construct: The mature processed cytokines produced from the members of the gene family show almost 100% amino acid identity between species; purchased R&D Systems
T5 sequence (P01137 279-390 limits assumed): as the sequence (P01137 279-390 limits assumed) above
Put plainly: Competition of TGF-β1 binding to immobilized TβRII (Quantikine ELISA). To be noted: 40 pM TGF-β1; fetuin 40 μM, TRH1 peptide from TβRII 20 μM; FIG. 14. How it is done:
Inhibition of TGF-β1 binding to TβRII was carried out using the Quantikine ELISA kit (R&D Systems). In particular, 96 well plates were pre-coated with the extracellular domain of TβRII. […] This was followed by a 5 minute incubation with the TβRII coated ELISA wells with shaking, washing as recommended, and a 1 hr incubation with the polyclonal anti-TGF-β1 antibody. Plates were developed as per the instructions, and determinations were made in triplicate.
In general terms: An ELISA detects its analyte on a solid surface through an enzyme-linked reagent.

Assay [3] relates to rat bone marrow stromal cells. Put plainly: Dexamethasone-treated rat bone marrow stromal cell cultures (proliferation, mineralization, TGF-β levels). Format: cell-based. The following applies: dexamethasone 10^-8 M, FIG. 17. How it is done: The methods used in the studies described in this example and illustrated in FIGS. 16 and 17 are as follows. Femoral bones were removed under aseptic conditions from adult male Wistar rats (120 g), cleaned of adherent soft tissues, and washed extensively in antibiotics. The distal ends were removed and the marrow contents were flushed out with 10 ml of culture medium. The cells were dispersed by repeated passage through a 20 gauge needle and incubated in alpha-MEM supplemented with 15% fetal bovine serum, ascorbic acid (50 μg/ml), antibiotics (penicillin G 100 μg/ml, gentamicin 50 μg/ml, fungizone 0.3 μg/ml) and 10 mM β-glycerophosphate. […] Following 6 days of culture at 37° C. in a humidified atmosphere containing 5% CO2 in air, the cells were re-plated at a density of 1×10^2 cell/mm^2 in 96 multi-well plates (Falcon 3047), and grown for another 12-14 days. At the end of culture, the cells were fixed and stained for calcium with alizarin red-s for quantification of bone nodule area (reported as mineralized area (mm^2)/well). To assess mineralized tissue formation in the cultures morphometric measurements were carried out with the aid of a Bioquant IV system (Bioquant, Nashville, Tenn., U.S.A.) using a Leitz Orthoplan microscope. TGF-β in culture supernatants taken 4 days prior to scoring mineralization were measured with and without heat activation (80° C. for 10 min) using the Mink cells as the indicator cell line as described in FIG. 12.

The mark [4] stands for this setting: Table 2 (calculations repeated).

Where a SMILES comes first, the peptide text is derived from it. Bridges are numbered along the chain shown (N, C = ends). The star is where a group is joined. Cam = NC(=O)C*

`CC[C@H](C)[C@H](NC(=O)[C@H](CC(=O)O)NC(=O)[C@@H](N)CSCC(N)=O)C(=O)N[C@@H](Cc1c[nH]cn1)C(=O)N[C@H](C(=O)N[C@@H](CC(C)C)C(=O)N[C@@H](CCCCN)C(=O)N[C@@H](CCC(N)=O)C(=O)N[C@@H](CC(=O)O)C(=O)NCC(=O)N[C@@H](CCC(N)=O)C(=O)N[C@@H](Cc1ccccc1)C(=O)N[C@@H](CO)C(=O)N[C@H](C(=O)N[C@@H](CC(C)C)C(=O)N[C@@H](Cc1ccccc1)C(=O)N[C@H](C(=O)N[C@@H](CCCCN)C(=O)N[C@@H](CSCC(N)=O)C(=O)O)[C@@H](C)O)C(C)C)C(C)C` [TRH1b (fetuin) (reduced & alkylated)] (H-C(Cam)DIHVLKQDGQFSVLFTKC(Cam)-OH; N-terminus and C-terminus assumed): the “binding to immobilized BMP-2 (in words)” value on BMP-2 is “no significant binding”.

“Thyroglobulin: Bovine thyroglobulin (Sigma), contains the TRH1 domain”: the “Maximal effect, percent neutralization” value in the assay with TGF-β1 [1] (12 pM TGF-β1, FIG. 1) was “approximately 150%”. Further, the “IC50 for inhibition of TGF-β1 activity, fold lower than for fetuin” value in the assay with TGF-β1 [1] (FIG. 1) is 20 fold. For the same molecule, the kass with BMP-4 stood at 54000 ± 7000 M⁻¹ s⁻¹; with BMP-2 (Table 1), 32000 ± 2000 M⁻¹ s⁻¹; with TGF-β2, 1300 ± 600 M⁻¹ s⁻¹.

For the molecule “human transferrin: non-binding control protein [reference compound]”, in the assay with TGF-β1 [2], the “binding to immobilized TGF-β1 (in words)” value is “non-binding”.

In the case of `CC[C@H](C)[C@@H]1NC(=O)[C@H](CC(N)=O)NC(=O)[C@H](CCC(=O)O)NC(=O)[C@H](CC(=O)O)NC(=O)[C@H](CC(N)=O)NC(=O)[C@H](CCCCN)NC(=O)[C@H](CCCNC(=N)N)NC(=O)[C@H](Cc2c[nH]c3ccccc23)NC(=O)[C@H](C(C)C)NC(=O)[C@H](C)NC(=O)[C@H](C(C)C)NC(=O)[C@@H](N)CSSC[C@@H](C(=O)O)NC(=O)[C@H](C(C)C)NC(=O)[C@H]([C@@H](C)O)NC(=O)[C@H](CCC(=O)O)NC(=O)[C@H](CC(C)C)NC(=O)[C@H]([C@@H](C)O)NC1=O` [TRH1b (TβRII)], the kass at TGF-β1 [2] (Table 1) was 3700 ± 2900 M⁻¹ s⁻¹; on TGF-β1 [2] (setting [4]), 2200 ± 1300 M⁻¹ s⁻¹. For the same molecule, the “inhibition of TGF-β1 binding to immobilized recombinant TβRII” value on TGF-β1 binding to TβRII is reported as “competitive inhibitors”.

With `C[C@@H]1C[C@H]2[C@@H]3CCC4=CC(=O)C=C[C@]4(C)[C@@]3(F)[C@@H](O)C[C@]2(C)[C@@]1(O)C(=O)CO` [Dexamethasone, dexamethasone, reference compound], in assay [3], the “increase of the fraction of active TGF-β in the cultures” value is listed as 3 fold.

As for “reduced and alkylated fetuin: fetuin, reduced and alkylated”, in the assay with BMP-2, the “binding to immobilized BMP-2 (in words)” value is on record as “diminished binding”. Further, the “binding to immobilized TGF-β1 (in words)” value with TGF-β1 [2] is recorded as “diminished binding”.

Consider `CC[C@H](C)[C@@H]1NC(=O)[C@H](CC(=O)O)NC(=O)[C@@H](N)CSSC[C@@H](C(=O)O)NC(=O)[C@H](CCCCN)NC(=O)[C@H]([C@@H](C)O)NC(=O)[C@H](Cc2ccccc2)NC(=O)[C@H](CC(C)C)NC(=O)[C@H](C(C)C)NC(=O)[C@H](CO)NC(=O)[C@H](Cc2ccccc2)NC(=O)[C@H](CCC(N)=O)NC(=O)CNC(=O)[C@H](CC(=O)O)NC(=O)[C@H](CCC(N)=O)NC(=O)[C@H](CCCCN)NC(=O)[C@H](CC(C)C)NC(=O)[C@H](C(C)C)NC(=O)[C@H](Cc2c[nH]cn2)NC1=O` [TRH1b (fetuin)] (H-CDIHVLKQDGQFSVLFTKC-OH; disulfide 1-19; N-terminus and C-terminus assumed), for which the kass on BMP-2 (setting [4]) was 1300 ± 500 M⁻¹ s⁻¹. Also, the “Competition of fetuin-BMP-2 binding” value at BMP-2 (co-injected with fetuin, data not shown, listed as fetuin TRH1b peptide) is “competed for fetuin-BMP-2 binding in a dose dependent manner”.
